Data on one molecule can be found in paper PMC11019291.

The series addresses SARS-CoV-2 nucleocapsid protein (N protein) (SARS-CoV-2, UniProt P0DTC9). As to the kind of experiment: SERS (surface-immobilized aptamer). The following applies: protein: recombinant; tags: C-terminal His6 (pET26); N-terminal PelB signal and vector residues.

On to AAAAACGCGCGTATTCCTTAGGGGCACCGCTACACGCGCG (ssDNA, 5'-thiol) [anti-N DNA aptamer], for which the binding result is “binds”.
